Measured values: paper PMC5817353, “Iron Sulfur and Molybdenum Cofactor Enzymes Regulate the Drosophila Life Cycle by Controlling Cell Metabolism” (Frontiers in Physiology, 2018)

Molecular target: Drosophila Nfs1^Δ1–53/Isd11/IscU complex (Drosophila melanogaster, UniProt Q9VKD3 54-462; O46098 1-92; Q9VHK6 1-154)
Assay: cell-based or functional assay

Drosophila Nfs1^Δ1–53/Isd11/IscU complex, sequence (Q9VKD3 54-462, stated change not applied, chain 1 of 3): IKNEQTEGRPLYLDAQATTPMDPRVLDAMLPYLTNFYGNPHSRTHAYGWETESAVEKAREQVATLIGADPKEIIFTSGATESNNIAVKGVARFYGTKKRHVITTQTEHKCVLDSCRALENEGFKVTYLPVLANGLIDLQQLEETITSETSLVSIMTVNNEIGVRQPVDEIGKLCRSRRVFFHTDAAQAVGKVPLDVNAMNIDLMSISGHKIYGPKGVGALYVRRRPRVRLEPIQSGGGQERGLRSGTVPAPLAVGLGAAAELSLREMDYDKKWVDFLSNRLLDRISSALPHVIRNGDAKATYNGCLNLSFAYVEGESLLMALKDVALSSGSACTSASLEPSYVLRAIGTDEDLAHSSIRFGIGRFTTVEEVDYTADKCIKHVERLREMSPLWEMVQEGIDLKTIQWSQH
Drosophila Nfs1^Δ1–53/Isd11/IscU complex, sequence (O46098 whole entry, stated change not applied, chain 2 of 3): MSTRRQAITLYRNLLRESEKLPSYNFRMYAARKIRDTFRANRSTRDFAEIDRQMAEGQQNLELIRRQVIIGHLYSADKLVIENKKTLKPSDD
Drosophila Nfs1^Δ1–53/Isd11/IscU complex, sequence (Q9VHK6 whole entry, stated change not applied, chain 3 of 3): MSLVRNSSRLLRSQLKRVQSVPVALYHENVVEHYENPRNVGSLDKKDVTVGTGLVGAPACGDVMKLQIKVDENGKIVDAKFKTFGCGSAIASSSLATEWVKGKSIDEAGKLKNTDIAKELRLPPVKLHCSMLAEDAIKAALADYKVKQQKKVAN

B1: human frataxin (FXN) (natural protein, UniProt Q16595 42-210, looked up)
chain: LRTDIDATCTPRRASSNQRGLNQIWNVKKQSVYLMNLRKSGTLGHPGSLDETTYERLAEETLDSLAEFFEDLADKPYTFEDYDVSFGSGVLTVKLGGDLGTYVINKQTPNKQIWLSSPSSGPKRYDWTGKNWVYSHDGVSLHELLAAELTKALKTKLDLSSLAYSGKDA
L-cysteine desulfurase activity (total sulfide produced, methylene blue) of the IscU/Nfs1^Δ1–53/Isd11 complex on addition of human frataxin, 1:3 [Nfs1]:[FXN], anaerobic, 10 min at 23°C: 6 fold
